Results published in doi:10.1101/2020.09.01.276469 (bioRxiv, 2020).

T1: TPX2 amino acids 1-260 (Xenopus laevis, UniProt Q6NUF4 1-260)
T1 sequence (looked up): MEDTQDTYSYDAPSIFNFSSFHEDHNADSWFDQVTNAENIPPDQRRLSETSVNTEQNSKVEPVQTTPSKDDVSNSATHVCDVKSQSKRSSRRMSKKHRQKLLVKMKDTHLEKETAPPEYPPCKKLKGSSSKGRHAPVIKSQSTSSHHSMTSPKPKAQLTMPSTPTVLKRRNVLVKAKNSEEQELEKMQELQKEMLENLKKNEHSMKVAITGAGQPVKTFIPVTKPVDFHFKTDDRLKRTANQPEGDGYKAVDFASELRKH

T2: TPX2 amino acids 1-178 (Xenopus laevis, UniProt Q6NUF4 1-178)
T2 sequence (looked up): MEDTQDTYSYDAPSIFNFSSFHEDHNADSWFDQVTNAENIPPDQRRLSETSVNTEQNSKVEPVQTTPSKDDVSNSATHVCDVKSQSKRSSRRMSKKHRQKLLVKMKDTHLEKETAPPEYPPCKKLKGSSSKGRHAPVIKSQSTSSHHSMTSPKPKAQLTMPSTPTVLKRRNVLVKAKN

B1: importin-α/β heterodimer (GST-importin-α bound to importin-β) (complex)
chain 1: not shown
chain 2: MELVTILEKTVSPDRNELEAAQKFLEQAAVENLPTFVVELSKVLANPANSQVARVAAGLQIKNPLTSRDPDVKAQYQQRWLAIDASARGEIKTYVLRTLGTESYRPSSASQCVAGIACAEITVNQWPQLIPQLVANVTDPNSTERMKESTLEAIGYICQDIDPEQLQHKSNEILTAIIQGMRKEEPSNNVRLAATNALLNSLEFTKANFDKESERHYIMQVVCEATQCPDTRVRVAALQNLVKIMSLYYQYMETYMGPALFAITVEAMKNEIDEVALQGIEFWSNVCDEEMDLAIEASEAAEQGRPPEHTSKFYAKGALQYLVPILTQTLTKQDENDDDDDWNPCKAAGVCLMLLATCCEDDIVPHVLPFIKEHIKNPDWRYRDAAVMAFGCILEGPESCQLKPLVIQAMPTLIELMKDPSVVVRDTTAWTVGRICELLPEAAINDVYLAPLLQCLIEGLGAEPRVASNVCWAFSSLAEAAYEAADVADDQEEPSSYCLSSSFEVIVQKLLETTDRPDGHQNNLRSAAYEALMEIVKNSAKDCYPAVQKTTLVIMERLQQVLQVESHIQSTSDRIQFNDLQSLLCATLQNVLRKVQHQDALQISDVVMASLLRMFQSTAGSGGVQEDALMAVSTLVEVLGAEFLKYMEAFKPFLTIGLKNYAEYQVCLAAVGLVGDLCRALQSNILPFCDEMMQFLLENLGNENVHRSVKPQILSVFGDVALAIGGEFKKYLDVVLNTLQQASQAQVDKSDYDMVDYLNELREGCIEAYTGIIQGLKGDQENVHPDVMLVQPRVEFILSFIDHIAGDEDHTDSVVACGAGLIGDLCTAFGKDVLKLVEARPMIHELLTEGRRSKTNKTKTLATWATKELRKLKNQA
B2: importin-β (natural protein, Xenopus laevis, UniProt P52297 1-876, looked up)
chain: B1 chain 2
B3: importin-αΔIBB (importin-α without the importin-β binding domain) (domain or fragment)
chain: not shown
B4: Targeting Protein for XKlp2 (TPX2), full length, GFP-tagged (natural protein, Xenopus laevis, UniProt Q6NUF4 1-716, looked up)
chain: MEDTQDTYSYDAPSIFNFSSFHEDHNADSWFDQVTNAENIPPDQRRLSETSVNTEQNSKVEPVQTTPSKDDVSNSATHVCDVKSQSKRSSRRMSKKHRQKLLVKMKDTHLEKETAPPEYPPCKKLKGSSSKGRHAPVIKSQSTSSHHSMTSPKPKAQLTMPSTPTVLKRRNVLVKAKNSEEQELEKMQELQKEMLENLKKNEHSMKVAITGAGQPVKTFIPVTKPVDFHFKTDDRLKRTANQPEGDGYKAVDFASELRKHPPSPVQVTKGGHTVPKPFNLSKGKRKHEEASDYVSTAEQVIAFYKRTPARYHLRSRQREMEGPSPVKMIKTKLTNPKTPLLQTKGRHRPVTCKSAAELEAEELEMINQYKFKAQELDTRILEGGPVLLKKPLVKEPTKAIGFDLEIEKRIQQREKKEEIEEETFTFHSRPCPSKMLTDVVGVPLKKLLPVTVPQSPAFALKNRVRIPAQEEKQEEMVPVIKATRMPHYGVPFKPKLVEQRQVDVCPFSFCDRDKERQLQKEKRLDELRKDEVPKFKAQPLPQFDNIRLPEKKVKMPTQQEPFDLEIEKRGASKLQRWQQQIQEELKQQKEMVVFKARPNTVVHQEPFVPKKENRSLTESLSGSIVQEGFELATAKRAKERQEFDKCLAETEAQKSLLEEEIRKRREEEEKEEISQLRQELVHKAKPIRKYRAVEVKASDVPLTVPRSPNFSDRFKC
B5: TPX2 N-terminus (a.a. 1-480) (domain or fragment, Xenopus laevis, UniProt Q6NUF4 1-480, looked up)
chain: MEDTQDTYSYDAPSIFNFSSFHEDHNADSWFDQVTNAENIPPDQRRLSETSVNTEQNSKVEPVQTTPSKDDVSNSATHVCDVKSQSKRSSRRMSKKHRQKLLVKMKDTHLEKETAPPEYPPCKKLKGSSSKGRHAPVIKSQSTSSHHSMTSPKPKAQLTMPSTPTVLKRRNVLVKAKNSEEQELEKMQELQKEMLENLKKNEHSMKVAITGAGQPVKTFIPVTKPVDFHFKTDDRLKRTANQPEGDGYKAVDFASELRKHPPSPVQVTKGGHTVPKPFNLSKGKRKHEEASDYVSTAEQVIAFYKRTPARYHLRSRQREMEGPSPVKMIKTKLTNPKTPLLQTKGRHRPVTCKSAAELEAEELEMINQYKFKAQELDTRILEGGPVLLKKPLVKEPTKAIGFDLEIEKRIQQREKKEEIEEETFTFHSRPCPSKMLTDVVGVPLKKLLPVTVPQSPAFALKNRVRIPAQEEKQEEMVPVI

Legend:
[1] = target: B4; assay: SEC-MALS
[2] = target: GST-importin-α (full length) (Xenopus laevis); assay: SEC-MALS
[3] = target: the molecule itself; assay: SEC-MALS
[4] = target: T1, TPX2 amino acids 1-260; assay: BLI
[5] = target: B4; assay: BLI
[6] = target: T2, TPX2 amino acids 1-178; assay: BLI
[7] = target: B1; assay: BLI
[8] = target: B2; assay: BLI

## B1
[1]
  stoichiometry N: 1

## B2
[2]
  stoichiometry N: 1

## B3
[1]
  stoichiometry N: ≥ 1
[3]
  stoichiometry N: 2
[4]
  Kd: 20 ± 4 nM
[5]
  Kd: 61 ± 10 nM
[6]
  Kd: 15 ± 3 nM

## B4
[7]
  Kd: 75 ± 15 nM
[8]
  Kd: 530 ± 75 nM

## B5
[8]
  Kd: 512 ± 70 nM
